{"source": "the nanobody polyreactivity screen of Harvey et al. (2022)"}
{"experiment": "yeast display, Sf9 membrane polyspecificity reagent, FACS + sequencing; frameworks hold sequencing errors", "method_in_brief": "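Nanobodies from a synthetic yeast display library (Saccharomyces cerevisiae BJ5465), induced 36–48 hours with galactose, were stained 1 hour at 4 °C with 10% biotinylated, detergent-solubilized Sf9 membrane reagent, enriched on streptavidin microbeads, then FACS-sorted. Anti-HA (expression) and streptavidin (reagent binding) fluorescence set low and high (top ~1%) gates. Polyreactivity labels come from the gate of origin. Genes were colony-PCR amplified, MiSeq 2 × 250 sequenced and filtered by CDR length.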"}
{"sequence": "QVQLVESGGGLVQAGGSLRLSGAASGRTFRGNVMGWYRQAPGKEREFVAAITKSDGSTYYADSVKGRFTISRDNAKNTVYLQMNSLKPEDTAVYYCAARTARTGWPWFRYDYWGQGTQVTVSS", "polyreactivity (PSR sort gate)": "low polyreactivity"}
{"sequence": "QVQLVESAGGLVQAGGSLRLSCAASGFTFYWYAMGWYRQAPGKEREFVAAIDQSGGSTYYADSVKGRFTISRDNAKNTVYLQMNSLKPEDTAVYYCAARYILWDGDSWTEFDYWGQGTQVTVSS", "polyreactivity (PSR sort gate)": "low polyreactivity"}
{"sequence": "QVQLVESGGGLLQAGGSLRLSCAASGRIYWNDMAWYRQAPGKERELVAAISWGGDRTYYADSVKGRFTISRDNAKNTVYLQMNSLKPEDTAVYYCNAPGYLTYDHSYDYWGQGTQVTVSS", "polyreactivity (PSR sort gate)": "low polyreactivity"}
{"sequence": "QVQLVESGGGLVQGGGSLRLSCAASGGTIGRNAMGWYRQAPGKERELVANITRRGGSTYYADSVKGRFTISRDNAKNTVYLQMNSLKAEDTAVYYCAARDVYRGGLFDYWGQGTQVSVSS", "polyreactivity (PSR sort gate)": "high polyreactivity"}
{"sequence": "QFQLVESGGGLVQAGGSLRLSCAASGSTFGVYAMGWYRQAPGKERELVATINSGGSTNYADSVKGLFTISRDNAKNTVYLQMNSLKPEDTAVYYCAAGPFWQDFYVYEYDYWGQGTQVTVSS", "polyreactivity (PSR sort gate)": "low polyreactivity"}
{"sequence": "QVQLVESGGGLVQAGGSLRLSCAASGFIFRYNAMGWYRQAPGKERELVAAITSNGGRTYYADSVKGRFTISRDNAKNTVYLQMNSLKPEDTAVYYCNALGRTYPAYQDDYWGQGTQVTVSS", "polyreactivity (PSR sort gate)": "high polyreactivity"}
{"sequence": "QVQLVESGGGLVQAGGSLRLSCAASGRTFGQYAMGWYRQAPGKERELVAAITTRGGSTYYADSVKGRFTISRDNAKNTVYLQMNSLKPEDTAVYYCIADYPVKRRRGRDYWGQGTQVTVSS", "polyreactivity (PSR sort gate)": "high polyreactivity"}
{"sequence": "QVQLVESGGALVQAGGSLRLSCAASGITFEVYAMGLYRQAPGKAREFVAAITGSGSRTYYADSVKGRFTISRDNAKNTVYLQMNSLKPEDTAVYYCAVKGFSTRSYREFDYWAQGTQVTVSS", "polyreactivity (PSR sort gate)": "low polyreactivity"}
{"sequence": "QVQLQESGGGLVQAGGSLRLSCAASGSISILQSMGWYRQAPGKERELVAGINWGATTYYADSVKGRLTTSRDYAKNTVYLQLNSLKPEDTGVYYCAFQTYFTYPLLYWGQGTQVNVSS", "polyreactivity (PSR sort gate)": "low polyreactivity"}
{"sequence": "QVQLVESGGGLVQAGGSLRLSCAASGRTFRLYAMGWYRQAPGKERELVAAISWRGGRTYYADSVKGRFTISRDNAKNTVYLQMNSLKPEDTAVYYCAAEDGYGQYDYWGQGTQVTVSS", "polyreactivity (PSR sort gate)": "high polyreactivity"}
{"sequence": "QVQHVESGGGLVQAGGSLRLSCAASGSIFQKNAMGWYRKAPGKERELVAVITRGGTSTYYADSVKGRFTISRDNAKNTVYLQMNSLKPEDTAVYYCAAKADKRLDYWGQGTQVTVSS", "polyreactivity (PSR sort gate)": "low polyreactivity"}
{"sequence": "QVQLVESGGGLVQAGGSLRLSCAASGRTFYYAMGWYRPAPGKERELVAGITWSGGSTYYADSVKGRFTISRDNAKNTVYLQMNSLKPEDTAVYYCNAVYRYRTYRYDYWGQGTQVTVSS", "polyreactivity (PSR sort gate)": "high polyreactivity"}
{"sequence": "QVQLVESGGGLVQAGGSIRLSCAASGRIFWGNGMGWYRQAPGKEREFVAAISKSGGSTYYPDSVKGRFTISRDNAKNTVYLQMNSLKPEDTAVYYCAARAPYSYSGYGYWGQGTQVTVSS", "polyreactivity (PSR sort gate)": "high polyreactivity"}
{"sequence": "QVQLVESGGGLVQAGGSLRLSCAASGYTFVDNAMGWYRQAPGKERELVAAINWDGASTYADSVKGRFTISRDNAKNTVYLQMNSLKPEDTAVYYCTASGKDIFNYVYQGYDYWGQGTQVTVSS", "polyreactivity (PSR sort gate)": "low polyreactivity"}
{"sequence": "QVQLVESGGGLVQAGGSLRLSCAASGRIFPGYAMGWYRQAPGKERELVASISSGGRTYYADSVKGRFTISRDNAKNTVYLQMNSLIPEDTAVYYCNSRHSSYSFRYDYWGQGTQVTVSS", "polyreactivity (PSR sort gate)": "low polyreactivity"}
{"sequence": "QVQLVESGGGLVQAGGILRLSCAASGSIFSSYGMGRYRQAPGKERELVAAITRGGGSTYYADSVKGRFTISRDNAKNTVYLQMNSLKPEDTAVYYCAARGWRYSYTSVLFDYWGQGTQVTVSS", "polyreactivity (PSR sort gate)": "high polyreactivity"}
{"sequence": "QVQLVESGGGLVQAGGSLRLSCAASGSIFTRNAMGWYRQAPGKERELVAAISWRGGITNYADSVKGRFTISRDNAKNTVYLQMNSLKPEDTAVYYCNKIRTRGGYGYWGQGTQVTVSS", "polyreactivity (PSR sort gate)": "high polyreactivity"}
{"sequence": "QVQIVESGGGLVQAGGRLRLSFSASGIIFTGNAMGWYRQAPGKERELVAAITSGDTTNYADSVKGRFTISRDNAKNTVYLLMNSLKPEDTAVYYCAKELQVRQAGDYWGQGTQVTVSS", "polyreactivity (PSR sort gate)": "low polyreactivity"}
{"sequence": "EVQLVESGGGLVQAGGSLRLSFAASGFTFRYYAMGWYRQAPGKERELVASITGGGRTYYADSVKGRFTISRDNAKNTVYLQMNSLKPEDTAVYYCATLLAYRLGSGYDSWGQGTQVTVSS", "polyreactivity (PSR sort gate)": "high polyreactivity"}
{"sequence": "QVQLVESGGGLVQAGGSLRLSCAASGFTFPIYAMGLSRQAPGKERELVAAITTPGGRTYYADSVKGRFTISRDNAKNPVYLQLNSLKPEDTAVYYCNAQGYAYRLWFGYWGQGTQVTVSS", "polyreactivity (PSR sort gate)": "high polyreactivity"}
{"sequence": "QVQLVESGGGLVQAGGSLRLSCAASGIIFVSNAMGWYRQAPGKERELVATINWSDDSTYYADSVKGRFTISRDNAKNTVYLQMNSLKPEDTAVYYCNKELYPVGDYEYWGLGTQVTVSS", "polyreactivity (PSR sort gate)": "low polyreactivity"}
{"sequence": "QVQLVESGGGLVQAGGSLRLSCAASGSIFQVYAMGWYRQAPGKETELVAAIRRRGGSTYYADSVKGRFTISRDNAKNTVYLQMNSLKPEDTAVDYCAARTVGFYRYDYWGLGTQVTVSS", "polyreactivity (PSR sort gate)": "low polyreactivity"}
{"sequence": "QVQLVESGGGLVQAGGSRRLSCAASGSIFPQYAMGWYRQAPGKERELVAAITWSGSRTRYADSVKGRFTMSRDTAKNTGYLQMNSLKPEDTAVYDCAARFNGQTYYYWGQGTQVTLSS", "polyreactivity (PSR sort gate)": "high polyreactivity"}
{"sequence": "QVQLVESGGGLVQAGGSLRLSCAASGSIFRLYAKGSYRQAPGKERELVARITTGGSTNYADSVKGRFTISRDNANNTVYLQMNSLKPEDTAVYYSWGVPRRYYYWGQGTQVTVSS", "polyreactivity (PSR sort gate)": "high polyreactivity"}
{"sequence": "QDQHVESGGGLVQAGGSLRLSCAASGSTFDWNAMGWSRQAPGKERELVAGISWNGGSTYYADSVKGRFTISRDNAKNTVYLQMNSLKPEDTAVYYCNVVYGTTEYDYWGQGTQVTVSS", "polyreactivity (PSR sort gate)": "low polyreactivity"}
{"sequence": "QVQLVESGGGLVQAGGSLRLSCAASGNIFTYYVMGWYRQAPGKQRELVAAISRRGGSTYYADSVKGRFIISRDNAKHTVYLQMNSLKPEDTAVYYCAKKYPRDMDYWGQGTQVTVSS", "polyreactivity (PSR sort gate)": "high polyreactivity"}
{"sequence": "QVQLVESGGGLVQAGGSLRLSCAATGRTFGVNAMAWYRQAPGKESELVASIRWNGGSTYYADSVKGRFTISRDNAKNTVYLQMNSLKPEDTAVYYCNAVRRYRSREFDYWGQGSQVTVSS", "polyreactivity (PSR sort gate)": "low polyreactivity"}
{"sequence": "QVQLVESGGGLVQAGGSLRLSCAASGRTFRLNAMGWYRQAPGKERELVAGIRVRAGTTYYADSVKGRFTISRDNAKNTVYLQRNSLKPEDTAVYYCAAESYSRSRKYDYWGQGTQVTVSS", "polyreactivity (PSR sort gate)": "high polyreactivity"}
{"sequence": "QVQLVESGGGLVQAGGSLRLSCAASGNIFYAYDMGWYRQAPGKERELVAAITNGDSTDYADSVKGRFTISRDNAKNTVYLQMNSLKPEDTAVYYCATDIHSVHNNRDKHDYDYWGQGTQVTVSS", "polyreactivity (PSR sort gate)": "low polyreactivity"}
{"sequence": "QVQLVESGGGLVQAGGSLRLSCAASGRTFKYYAMGWYRQAPGKERELVASISASGGSTRYADSVKGRFTISRDNAKNTVYLQMNSLKPEDTAVYYCAADRGYKYYYWGLGTQVTVSS", "polyreactivity (PSR sort gate)": "high polyreactivity"}
{"sequence": "QVQLVESAGGIDQAGGRLRLSSAASGGIFTPYAMGCYRQAPGKDRELVATISSDGSTNYADSVKGRFTISRDNAKNTVYLQMNSLKPEDTAVYYCNIDRHKVAGTLPGWWYDYLGQGTQVTVSS", "polyreactivity (PSR sort gate)": "low polyreactivity"}
{"sequence": "QVQLVESGGGLVQAGGSLRLSCAASGLTFIYNAMGWYRQAPGKERELVAAISGNGGDTYYADSVKGRFTISRDNAKNTVYIQMNSLKPEDTAVYYCAADYAYTPITWDEYWGQGTQVTVSS", "polyreactivity (PSR sort gate)": "low polyreactivity"}
{"sequence": "QVQLVESGGGLVQAGGSLSLSCAASGITFNIYVMGWYRQAPGKERELVAAITDSGGTTYYADSVKGRFTISRDNAKNTVYLQMNSLKPEDTAVYYCAAEPFYSWWWWGDYWGQGTQVTVSS", "polyreactivity (PSR sort gate)": "high polyreactivity"}
{"sequence": "QVQLVESGGGLVQAGGSLRLSCAASGRTFPAYAMGWYRQAPGKERELVAAISYSGGRTRYADSVKGRFTISRDNAKNTVYLQMNSLKPEDTAVYYCNRVIPTQSLRDYYWGQGTQVTVSS", "polyreactivity (PSR sort gate)": "high polyreactivity"}
{"sequence": "QVQLVESGGGLVQAGASLRLSCAASGRTFNVYAMGWYRQAPGKERELVASISSGTSTNYADSVKGRFTISRDNAKNTVYLQMNSLKPEDTAVYYCNADFVWNGYSGRIRDYYWGQGTQVTVSS", "polyreactivity (PSR sort gate)": "low polyreactivity"}
{"sequence": "QVQLVESGGGLVQAGGSLRLSCAASGRIFEIYAMGWYRQAPGKERELVAAITDSGGSTYYAYSVKGRFTISRDNAKNTVYLQINSLKPEDTAVYYCAAVGYSYETWLFYYWGQGTQVTVSS", "polyreactivity (PSR sort gate)": "low polyreactivity"}
{"sequence": "QLQLVESGGGLVQAGGSLRLSCAASGSIFRTNVMGWYRQAPGKERELVAAISRRGGSTYYADSVKGRFTISRDNAKNTVYLQMISLKPEDTAVYYCAASSSAYRDDYWGQGTQVTVSS", "polyreactivity (PSR sort gate)": "high polyreactivity"}
{"sequence": "QVQLVESGGGLVQAGGSLRLSCAASGLIFRGYAMGWYRQAPGKERELVAAISSIAGSTYYADSVKGRFTISRDNAKNTVYLQMNSLKPEDTAVYYCAARSRWTFRDYYYWGQGTQVTVSS", "polyreactivity (PSR sort gate)": "high polyreactivity"}
{"sequence": "QVQLVESGGGLVKAGGSLRLSCAASGLTFAINTMGWYRQSRGKERELVAAITGSGGSTYYADSVKGRFTISRDNAKNTVYLQMNSLKPEDSAVYYCAAELLYVQGYAMDYWGQGTQVTVSS", "polyreactivity (PSR sort gate)": "low polyreactivity"}
{"sequence": "QVQLVESGGGLVQAGGSLRLSCAASGSILLYYTMGWYIQAPGKEWELVAAISWSGGSTYYADSVKGRFTISRDNAKNTVYLLMISLKPEDTAVYYCATRSVQGSYFAGYGYWGQGTQVTVSS", "polyreactivity (PSR sort gate)": "low polyreactivity"}
{"sequence": "QVQLVESGGGLVQAGGSLRLSCAASGLIIVYNAIGWYRHAPGKERELVAGITSGGSTNYADSEKGRFTISRDNAKKTVYLQMNSLKPEDTAVYYCNAPVTGAGTYPPYDSWGQGTQVTVSS", "polyreactivity (PSR sort gate)": "high polyreactivity"}
{"sequence": "QVQLVESGGGLVQAGGSLRLSCAASGRIFDKYAMGWYRQAPGKERYLVAAIDWSGGSTYYADSVKGRFTISRDNAKNTVYLQMNRLKPEDNAVYYCAAYWYYEDGQSEARLYGYDYWGQGTQVTVSS", "polyreactivity (PSR sort gate)": "low polyreactivity"}
{"sequence": "QVQLVESGGGLVQAGGSLRLSCAASGSTFYRYAMGWYRQAPGKERELVAAISQSGGRTYYADSVKGRFTISRDYAKNTVYLQMNSLKPEDTAVYYCAASWYYSLQRYGYWGQGTQVTVST", "polyreactivity (PSR sort gate)": "high polyreactivity"}
